# Data as given in PMC7057333 (ACS Omega, 2020).
# Like-named read-outs stand apart in the source and are kept apart here. Numbered stars: 1 amine (or outer) side, 2 acyl side, 3 side chain; on linkers, the order of the positions; unused ones are H or OH. Bridge positions count the residues as written; N and C are the ends. Square brackets hold non-standard residues; d marks the D form. Ends that are not written are not given here. dNle(6-ylidene) = O=C([C@@H](CCCC=[*:3])N[*:1])[*:2]; Gly(pent-4-enyl) = C=CCCC[C@H](N)C(=O)O; Lys(N3) = [N-]=[N+]=NCCCC[C@H](N)C(=O)O; hPhe = N[C@@H](CCc1ccccc1)C(=O)O; Cit = NC(=O)NCCC[C@H](N)C(=O)O; AllylGly = C=CC[C@H](N)C(=O)O; Aoc(2) = CCCCCC[C@H](N)C(=O)O; Pra = C#CC[C@H](N)C(=O)O
# Legend:
# [1] = target: T1, LSD1_(172-833), lysine-specific demethylase 1 (human, UniProt O60341-1 172-833); assay: cell-based or functional assay
# [2] = target: T2, LSD1_(172-833), lysine-specific demethylase 1 (human, UniProt O60341-1 172-833); assay: SPR; LSD1 immobilised by amine coupling on CM5 (12 000-15 000 RU), peptides injected; TBS-T (25 mM Tris, 150 mM HCl as printed, 0.05% Tween-20, 1 mM DTT, pH 8.0), 15 °C; 1:1 Langmuir model or steady state; highest tested concentration 200 μM; conditions: both partners purified
# [3] = target: T2, LSD1_(172-833), lysine-specific …; assay: cell-based or functional assay; remark: listed apart in the source
# [4] = target: T2, LSD1_(172-833), lysine-specific …; assay: enzyme inhibition kinetics (HRP-coupled fluorescence demethylation assay); 25 nM LSD1, substrate H3K4me1_(1-21), 25 mM Tris, 50 mM NaCl, 0.1 mg/mL BSA, pH 8, 1% DMSO; Ki by global fit of competitive inhibition for 1, 11, 24, 28, 31, 33, 34, else from IC50 by Cheng-Prusoff (substrate 20 μM); conditions: both partners purified
# [5] = target: T2, LSD1_(172-833), lysine-specific …; assay: SPR; LSD1 immobilised by amine coupling on CM5 (12 000-15 000 RU), peptides injected; TBS-T (25 mM Tris, 150 mM HCl as printed, 0.05% Tween-20, 1 mM DTT, pH 8.0), 15 °C; 1:1 Langmuir model or steady state; highest tested concentration 200 μM; conditions: both partners purified; remark: listed apart in the source
# [6] = target: T1, LSD1_(172-833), lysine-specific …; assay: enzyme inhibition kinetics (HRP-coupled fluorescence demethylation assay); 25 nM LSD1, substrate H3K4me1_(1-21), 25 mM Tris, 50 mM NaCl, 0.1 mg/mL BSA, pH 8, 1% DMSO; Ki by global fit of competitive inhibition for 1, 11, 24, 28, 31, 33, 34, else from IC50 by Cheng-Prusoff (substrate 20 μM); conditions: both partners purified; remark: listed apart in the source
# [7] = target: T1, LSD1_(172-833), lysine-specific …; assay: cell-based or functional assay; remark: listed apart in the source
# [8] = target: T1, LSD1_(172-833), lysine-specific …; assay: SPR; LSD1 immobilised by amine coupling on CM5 (12 000-15 000 RU), peptides injected; TBS-T (25 mM Tris, 150 mM HCl as printed, 0.05% Tween-20, 1 mM DTT, pH 8.0), 15 °C; 1:1 Langmuir model or steady state; highest tested concentration 200 μM; conditions: both partners purified; remark: listed apart in the source
binder,measurement,setting,value
"AR[dNle(6-ylidene)]MQ[dNle(6-ylidene)]ARKST-NH2 (staple 3-6) [stapled macrocycle 26 (stereoisomer of 23, D-pentenyl glycine at 3 and 6)]",% inhibition of LSD1 demethylase activity at 100 μM peptide,[1],90%
"ARTKQTARKST-NH2 [H3_(1-11) K4 (peptide 9), wild-type 11-mer]",Kd,[2],> 100 µM
ARTMQTARKST [H3_(1-11) K4M (peptide 4)],"IC50 of inhibition of LSD1 demethylation of H3_(1-21) K4(Me), enzyme activity assay",[3],> 100 µM
PRTMQTARKST-NH2 [A1P-substituted H3_(1-11) K4M (peptide 11)],Ki,[4],8 µM
same,Kd,[5],10 µM
AREMQKA[Cit]KST-NH2 (lactam 3-6) [lactam 34 (Arg8Cit-substituted analogue of peptide 28)],Ki,[6],8 µM
same,% inhibition of LSD1 demethylase activity at 100 μM peptide,[7],97%
"AR[Pra]MQ[Lys(N3)]ARKST-NH2 (triazole 3-6) [triazole 36 (triazole-bridged H3_(1-11) K4M, propargylglycine at 3, azidolysine at 6)]",Ki,[6],30 µM
same,% inhibition of LSD1 demethylase activity at 100 μM peptide,[7],70%
"AR[Lys(N3)]MQ[Pra]ARKST-NH2 (triazole 3-6) [triazole 35 (triazole-bridged H3_(1-11) K4M, azidolysine at 3, propargylglycine at 6)]",Ki,[6],> 100 µM
same,% inhibition of LSD1 demethylase activity at 100 μM peptide,[7],< 30%
"[AllylGly]R[AllylGly]MQTARKST-NH2 [peptide 18, linear precursor of 19 (allylglycine at positions 1 and 3 of H3_(1-11) K4M)]",% inhibition of LSD1 demethylase activity at 100 μM peptide,[1],98%
A[Cit]EMQKARKST-NH2 (lactam 3-6) [lactam 33 (Arg2Cit-substituted analogue of peptide 28)],Ki,[6],4.2 µM
same,% inhibition of LSD1 demethylase activity at 100 μM peptide,[7],97%
AR[Gly(pent-4-enyl)]MQ[Gly(pent-4-enyl)]ARKST-NH2 (staple 3-6) [stapled macrocycle 23 (8-carbon olefin bridge between residues 3 and 6)],% inhibition of LSD1 demethylase activity at 100 μM peptide,[1],75%
"AR[AllylGly]MQ[AllylGly]ARKST-NH2 (staple 3-6) [stapled peptide 21 (Thr3-Thr6 cyclization, 4-carbon olefin bridge)]",% inhibition of LSD1 demethylase activity at 100 μM peptide,[1],95%
ARTMQTARKSTGG [H3_(1-13) K4M (peptide 3)],Kd,[2],36 µM
ARTMQTA [H3_(1-7) K4M (peptide 6)],Kd,[2],> 200 µM
"[AllylGly]R[AllylGly]MQTARKST-NH2 (staple 1-3) [stapled peptide 19 (Ala1-Thr3 cyclization, 4-carbon olefin bridge)]",% inhibition of LSD1 demethylase activity at 100 μM peptide,[1],100%
Ac-RTMQTARKSTGGKAPRKQLA [H3_(2-21) K4M (peptide 7)],Kd,[2],45 µM
ARTMQTARK [H3_(1-9) K4M (peptide 5)],Kd,[2],> 200 µM
ART[Aoc(2)]QTARKST-NH2 [H3_(1-11) with 2-S-amino octanoic acid at position 4 (peptide 16)],Kd,[8],> 200 µM
"AR[Gly(pent-4-enyl)]MQ[Gly(pent-4-enyl)]ARKST-NH2 [peptide 22, linear precursor of 23 (pentenylglycine at positions 3 and 6 of H3_(1-11) K4M)]",% inhibition of LSD1 demethylase activity at 100 μM peptide,[1],100%
ARTMQTARKSTGGKA [H3_(1-15) K4M (peptide 2)],Kd,[2],5 µM
ART[hPhe]QTARKST-NH2 [H3_(1-11) with L-homophenylalanine at position 4 (peptide 17)],Kd,[8],> 200 µM
